These results are taken from patent US20240158537A1 (BRIGHT PEAK THERAPEUTICS, published 2024).

The target of assay [1] is T1, Biotinylated Recombinant Human PD-1 (CD279)-Fc Chimera (carrier-free), Biolegend #789406 (human, UniProt Q15116 25-167, biotinylated (site not stated)).
T1 construct: Bought reagent; also called h-PD1 Fc; Fc part of the bought chimera not given
The assay can be described thus: ELISA (OD 450 nm): antibody coated on the plate, biotinylated human PD-1-Fc titrated, streptavidin-HRP detection; x axis 'Molecule (nM)'; EC50 table beside the plot. (ELISA stands for enzyme-linked immunosorbent assay.)

Assay [2] addresses T1, Biotinylated Recombinant Human PD-1 …. In words: ELISA (OD 450 nm): immunocytokine coated on the plate, biotinylated human PD-1-Fc titrated, streptavidin-HRP detection; x axis 'Molecule (nM)'; EC50 table beside the plot.
Procedure: Each of these variant conjugates and unmodified antibodies were assayed by ELISA for their ability to bind to human PD-1 according to the following protocol.
Streptavidin-HRP was Sigma #RABHRP3. TMB solution was 3,3′,5,5′-Tetramethylbenzidine (Sigma T0440). Stop solution was Sigma #CL07STOP solution (0.5M H2SO4). Buffers were: Coating buffer was PBS. Wash buffer was PBS-0.02% Tween20. Blocking buffer was PBS-0.02% Tween20 1% BSA. Protein diluent was PBS-0.02% Tween20 0.1% BSA. STOP solution was 0.5M H2SO4. […] The ELISA plates were washed 4 times with 100 μl PBS—0.02% Tween20. and blocked with PBS—1% BSA. A serial dilution of h-PD1 Fc was prepared and plates were incubated for two hours at 37° C., with shaking (600 rpm). ELISA plates were washed and incubated with Streptavidin-HRP 30 min at RT, with shaking (600 rpm). ELISA plates were washed and incubated with ready-to-use TMB solution. Reaction was stopped and plates were read by OD450 on an Enspire plate reader.

T1 sequence (Q15116 25-167, change not shown): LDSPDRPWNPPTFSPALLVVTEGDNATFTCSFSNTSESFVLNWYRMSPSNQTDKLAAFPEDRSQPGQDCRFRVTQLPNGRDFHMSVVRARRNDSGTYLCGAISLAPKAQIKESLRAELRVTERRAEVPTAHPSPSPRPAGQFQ

B1: LZM-009 (unmodified anti-PD-1 antibody, SEQ ID NOs: 76-77) (antibody, V domains shown)
VH: QVQLVQSGAEVKKPGASVKVSCKASGYTFTSYYMYWVRQAPGQGLEWMGGVNPSNGGTNFNEKFKSRVTITADKSTSTAYMELSSLRSEDTAVYYCARRDYRYDMGFDYWGQGTTVTVSS
VL: EIVLTQSPATLSLSPGERATISCRASKGVSTSGYSYLHWYQQKPGQAPRLLIYLASYLESGVPARFSGSGSGTDFTLTISSLEPEDFATYYCQHSRELPLTFGTGTKVEIK
notes: It was tested as a full antibody with an Fc region (K248, Eu numbering); also called parental antibody
With B1, the concentration giving a half-maximal response (EC50) – broadly, the concentration that produces a half-maximal response – in assay [1] is 35 pM.

B2: Composition C (LZM-009-IL-7 conjugate, DAR 1) (other)
VH: QVQLVQSGAEVKKPGASVKVSCKASGYTFTSYYMYWVRQAPGQGLEWMGGVNPSNGGTNFNEKFKSRVTITADKSTSTAYMELSSLRSEDTAVYYCARRDYRYDMGFDYWGQGTTVTVSS
VL: EIVLTQSPATLSLSPGERATISCRASKGVSTSGYSYLHWYQQKPGQAPRLLIYLASYLESGVPARFSGSGSGTDFTLTISSLEPEDFATYYCQHSRELPLTFGTGTKVEIK
chain: DCDIEGKDGKQYESVLXVSIDQLLDSXKEIGSNCLXNEFNFFKRHICDANKEGXFLFRAARKLRQFLKXNSTGDFXLHLLKVSEGTTILLNCTGQVKGRKPAALGEAQPTKSLXENKSLKEQKKLNDLCFLKRLLQEIKTCWNKILXGTKEH
modifications: not fully specified; Nle at 17, 27, 54, 69, 147; Hse at 36, 76, 114; N-terminal amine carries the glutaryl-PEG-azide handle of Composition AA, joined by a chemical linker to K248 of the antibody heavy chain; K248 (Eu numbering) of the Fc region, whose sequence is not given, carries a DBCO linker reacted with the azide of Composition AA (triazole); drug-antibody ratio 1
notes: Chemical conjugate; also called immunocytokine Composition C
On to B2, for which the EC50 in assay [2] turned out to be 34.8 pM.
